Data set [1] concerns the molecule itself. The data set is described as follows: non-reducing SDS-PAGE; final purified tag-free OSM run on 10% tricine SDS-PAGE under reducing and non-reducing conditions, Coomassie stained.
Data set [2] concerns the molecule itself. Nature of the data set: SEC; HiLoad 16/600 Superdex 75 pg, 1x PBS pH 7.4, 1 mL/min; final proteins after tag cleavage.

B1: Human Oncostatin M (OSM), tag-free, purified from the MBP-OSM fusion expressed in BL21(DE3) (ligand, UniProt P13725 26-221, looked up)
chain: AAIGSCSKEYRVLLGQLQKQTDLMQDTSRLLDPYIRIQGLDVPKLREHCRERPGAFPSEETLRGLGRRGFLQTLNATLGCVLHRLADLEQRLPKAQDLERSGLNIEDLEKLQMARPNILGLRNNIYCMAQLLDNSDTAEPTKAGRGASQPPTPTPASDAFQRKLEGCRFLHGYHRFMHSVGRVFSKWGESPNRSRR
notes: Oncostatin M, human; Tag removed with TEV protease at ENLYFQ/G; surmised); Printed size 22.05 kDa; also called MBP fusion-derived OSM; OSM purified from MBP-OSM; source: E. coli BL21(DE3), 18 °C, purified (IMAC, TEV protease cleavage, second IMAC); not shown: His6, N-terminal, cleaved; MBP, N-terminal, cleaved
As for B1, the binding result in data set [1] is recorded as “binds”.

B2: Human Oncostatin M (OSM), tag-free, purified from the His6-OSM fusion expressed in Origami 2 (ligand, UniProt P13725 26-221, looked up)
chain: AAIGSCSKEYRVLLGQLQKQTDLMQDTSRLLDPYIRIQGLDVPKLREHCRERPGAFPSEETLRGLGRRGFLQTLNATLGCVLHRLADLEQRLPKAQDLERSGLNIEDLEKLQMARPNILGLRNNIYCMAQLLDNSDTAEPTKAGRGASQPPTPTPASDAFQRKLEGCRFLHGYHRFMHSVGRVFSKWGESPNRSRR
notes: Oncostatin M, human; Tag removed with TEV protease at ENLYFQ/G; a glycine probably stays at the N-terminus (surmised from the cysteine numbering); Printed size 22.05 kDa; also called His6 fusion-derived OSM; OSM purified from His-OSM; source: E. coli Origami 2(DE3), 18 °C, purified (IMAC with 2 M urea, TEV protease cleavage, second IMAC); not shown: His6, N-terminal, cleaved
Regarding B2, the binding result in data set [2] is recorded as “binds”.

(Values after PMC6757106, “Prokaryotic soluble overexpression and purification of oncostatin M using a fusion approach and genetically engineered E. coli strains” (Scientific Reports, 2019).)
